Results taken from US20210261643A1, “INHIBITORS OF P-TEFB MEDIATED TRANSCRIPTION” (The Regents of the University of California, priority 2018, published 2021).

Key:
[1] = system: HIV reactivation in J-Lat 9.2 cells; assay: HIV reactivation in J-Lat 9.2 latent infection model, FACS of GFP positive cells; assay type: cell-based; settings: J-Lat 9.2 cells, PMA 100 nM
Source text: FIGS. 4A and 4B. Stable expression of HT1 inhibits HIV reactivation. FIG. 4A: Stable expression of HT1 inhibits HIV reactivation from 2D10 cells. 3f:HT1 was stably expressed in 2D10 cells (D-HT cells). […] Error bars represent standard deviation from triplicate FACS analysis. FIG. 4B: Stable expression of HT1 inhibits HIV reactivation from J-Lat 9.2 cells. 3f:HT1 was stably expressed in J-Lat 9.2 cells (L-HT cells). […] Error bars represent standard deviation from triplicate FACS analysis.
To test the effect of HT1 on HIV-1 in T-lymphocyte derived cells, 3f:HT1 was stably expressed in HIV latent infection models 2D10 and J-Lat 9.2 cells (D-HT and L-HT cells respectively), which carry replication-defective, GFP-flagged HIV proviruses. In both 2D10 and J-Lat 9.2, the basal HIV transcription level is undetectable, as measured through GFP expression. Compounds such as the PKC agonist PMA, the histone deacetylase inhibitor SAHA or the BET bromodomain inhibitor JQ1 reactivate HIV transcription and increase GFP-positive cells detected by FACS analysis. 2D10 cells are more sensitive to HIV reactivation than J-Lat 9.2 cells, though they harbor a mutation in the N-terminal sequence of Tat (H13L). 2D10 and D-HT cells were incubated for 24 hrs with PMA (10 nM), SAHA (5 μM) or JQ1 (1 μM) and GFP positive cells were detected by FACS analysis. […]

[2] = biological target: positive transcription elongation factor B (UniProt O60563 1-726; P50750 1-372); assay: cell-based or functional assay
[3] = system: Tat-dependent gene expression from the HIV promoter; assay: Luciferase reporter assay, pLTR-Luc co-transfected with pTat and pHT in 293T cells; assay type: cell-based
Source text: FIGS. 2A, 2B, and 2C. A HEXIM1-Tat fusion peptide inhibits gene expression from the HIV promoter. FIG. 2A. Structure of the HEXIM1-Tat fusion peptides used in the study. The functional domains used from HEXIM1 and Tat include a HEXIM1 Arginine Rich Motif (ARM, black box, residues 150-162) that binds RNA, a HEXIM1 inhibitory domain (ID, light grey box, residues 200-211) that inhibits CDK9 through a PYNT motif, and Tat transactivation domain (AD, dark grey box, residues 1-48) that binds to P-TEFb. The conceptual schemes are not drawn to scale. FIG. 2B. Transient expression of HT1 inhibits Tat-induced LTR-driven Luc expression. Upper panel: a schema depicts the reporter assay. A luciferase reporter gene (Luc) is under the control of the HIV promoter (P-HIV) and can be activated by ectopically expressed Tat. The Luc assay was used to titrate the inhibitory effect of HT1-3 on P-HIV transactivation by Tat. Middle panel: increasing amounts of m:HT1, m:HT2 or m:HT3 expressing plasmid (pHT) were co-transfected in 293T cells with a plasmid (pTat) expressing f:Tat and another (pLTR-Luc) expressing Luc under the control of the HIV promoter. Luc activity was plotted as % activity relative to control (empty vector used instead of pHT), depending on the transfected pHT:pTat ratio. Error bars in the graph represent standard deviation from triplicate experiments. FIG. 2C. Transient expression of HT1 inhibits Luc expression from HIV-1 NL43ΔenvLuc. Top schema depicts the reporter assay. A luciferase reporter gene (Luc) is inserted in a replication-defective HIV-1 molecular clone (pNL43ΔenvLuc) in which Luc and Tat are under the control of the HIV promoter (P-HIV). A Luc assay was used to titrate the inhibitory effect of HT1-3 on P-HIV transactivation by Tat. Bottom: increasing amounts of pHT1 were co-transfected in 293T cells with pNL43ΔenvLuc. Luc activity was plotted as % activity relative to control (empty vector used instead of pHT), depending on the transfected amounts of pHT1. Error bars in the graph represent standard deviation from triplicate experiments.
Luciferase (Luc) reporter assays were performed to titrate the potency of each chimera to inhibit Tat-dependent gene expression from the HIV promoter. Effector plasmids included pHT1-3 and pTat, which respectively expressed a Myc-epitope tag chimera (m:HT1-3) and a Flag-epitope tagged Tat (f:Tat). pHT1, pHT2 or pHT3 was transiently co-transfected in 293T cells with pTat and a Luc reporter gene under the control of the HIV promoter (P-HIV, expressed from the plasmid pLTR-Luc). […] Finally, HT1 lead to a 4-fold decrease in Luc expression at a 2:1 ratio. […] Similar results were obtained when co-transfecting pHT1-3 and pTat in NIH1 cells, which stably carry an LTR-Luc reporter gene. Thus, we selected HT1 for further investigation.

[4] = system: HIV TAR RNA; assay: RNA immunoprecipitation and RT-qPCR with TAR-specific primers in 293T cells; assay type: binding; settings: 293T cells, anti-Myc Ab, RT-qPCR
Method: FIGS. 3A, 3B, 3C and 3D. HT1 prevents Tat from bringing active P-TEFb to TAR. FIG. 3A: HT1 inhibits the kinase activity of P-TEFb subunit CDK9. m:HT1 and/or f:Tat were transiently expressed in 293T cells. Cell lysates were used for IP using anti-Myc Ab (lanes 2-4), or control IgG (lane 1). Immunoprecipitates were incubated with ATP and recombinant GST-CTD proteins for in vitro kinase assay. Six replicate experiments were performed, and mean relative kinase activities are shown in the bar graph to the right. FIG. 3B: HT1 binds to TAR. m:HT1 or m:Tat (or empty vector, EV, as a control) was transiently co-expressed with TAR RNA-expressing pU16TAR in 293T cells. Cell lysates were used for IP using anti-Myc Ab or control IgG. RNA was purified from the immunoprecipitates and submitted to RT-qPCR using TAR-specific primers. Relative TAR enrichment was calculated as qPCR count using anti-Myc Ab minus using IgG, and normalized to EV. Error bars represent standard deviation from triplicate qPCR assays. […] Error bars represent standard deviation from triplicate qPCR assays. FIG. 3D: HT1 competes with Tat for TAR binding. m:HT1 and/or f:Tat were transiently co-expressed with TAR RNA-expressing pU16TAR in 293T cells. Cell lysates were used for IP using anti-Myc Ab or control IgG. RNA was purified from the immunoprecipitates and submitted to RT-qPCR using TAR-specific primers (upper panel). Relative TAR enrichment was calculated as qPCR count using anti-Myc Ab minus using IgG, and normalized to EV. Error bars represent standard deviation from triplicate qPCR assays.
Finally, since HEXIM1 ARM resembles the TAR-binding domain from Tat, we investigated whether HT1 could bind to HIV TAR. m:HT1 or m:Tat was co-expressed in 293T cells with TAR RNA, expressed under RNA Polymerase III dependent H1 promoter, and immunoprecipitated using anti-Myc Ab or IgG as a control. TAR RNAs co-immunoprecipitated with HT1 or Tat were quantified by RT-qPCR analysis. […] To test whether HT1 affects Tat-TAR interactions, increasing amounts of m:HT1 were also co-expressed with a fixed amount of f:Tat and TAR. […] As expected, HT1 also bound to endogenous 7SK snRNA.

positive transcription elongation factor B, sequence (O60563 whole entry, chain 1 of 2): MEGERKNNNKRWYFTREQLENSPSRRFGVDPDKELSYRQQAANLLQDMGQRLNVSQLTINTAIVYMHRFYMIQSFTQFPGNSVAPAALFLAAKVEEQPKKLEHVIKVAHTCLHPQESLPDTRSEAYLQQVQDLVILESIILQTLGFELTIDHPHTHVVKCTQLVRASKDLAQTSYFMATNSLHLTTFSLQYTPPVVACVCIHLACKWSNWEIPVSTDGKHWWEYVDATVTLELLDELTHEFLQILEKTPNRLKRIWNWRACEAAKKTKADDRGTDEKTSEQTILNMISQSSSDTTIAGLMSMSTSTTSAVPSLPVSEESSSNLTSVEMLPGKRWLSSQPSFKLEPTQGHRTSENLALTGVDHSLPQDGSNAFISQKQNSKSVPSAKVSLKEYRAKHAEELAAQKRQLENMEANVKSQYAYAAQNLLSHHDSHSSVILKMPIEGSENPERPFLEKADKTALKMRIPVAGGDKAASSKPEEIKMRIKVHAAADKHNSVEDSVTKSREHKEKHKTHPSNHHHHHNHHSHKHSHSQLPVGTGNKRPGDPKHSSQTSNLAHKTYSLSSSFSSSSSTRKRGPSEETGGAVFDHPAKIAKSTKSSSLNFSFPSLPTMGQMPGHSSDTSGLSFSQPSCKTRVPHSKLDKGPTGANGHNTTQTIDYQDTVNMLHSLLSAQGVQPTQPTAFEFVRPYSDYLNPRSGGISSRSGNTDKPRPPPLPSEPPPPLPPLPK
positive transcription elongation factor B, sequence (P50750 whole entry, chain 2 of 2): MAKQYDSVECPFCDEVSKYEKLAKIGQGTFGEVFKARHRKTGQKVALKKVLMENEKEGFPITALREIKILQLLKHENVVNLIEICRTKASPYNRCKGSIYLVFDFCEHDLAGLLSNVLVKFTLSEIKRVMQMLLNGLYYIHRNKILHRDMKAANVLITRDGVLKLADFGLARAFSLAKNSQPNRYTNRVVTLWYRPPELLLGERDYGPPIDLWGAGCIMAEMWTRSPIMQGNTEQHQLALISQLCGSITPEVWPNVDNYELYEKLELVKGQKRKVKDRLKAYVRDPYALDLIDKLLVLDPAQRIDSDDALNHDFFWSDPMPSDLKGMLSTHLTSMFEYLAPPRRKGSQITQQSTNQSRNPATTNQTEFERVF

## CCCCCCCCCCCCCC(=O)O[C@@H]1[C@@H](C)[C@@]2(O)[C@@H](C=C(CO)C[C@]3(O)C(=O)C(C)=C[C@@H]23)[C@@H]2C(C)(C)[C@]12OC(C)=O [PMA, reference compound]
[1]
  increase in GFP expression: 12%

B1: Myc-epitope tagged HEXIM1-Tat chimera HT1 (designed binder)
chain: KKKHRRRPSKKKRHWKPYYKLTWEEKKKFDEKQSLRASRIRAEMFAKGQPVAPYNTTQFLMDDHDQEEPDLVDMEPVDPYLEPWKHPGSQPRTACNNCYCKKCCFHCYACFTRKGLGISYG
[2]
  fold decrease in relative kinase activity (CTD-P band intensity normalized with CDK9), in vitro kinase assay on immunoprecipitates with ATP and GST-CTD: 3.1 fold

B2: THT: fusion protein of TAT ARM, HEXIM CDK9 inhibitory domain and TAT P-TEFb-binding domain (protein)
chain: MEQKLISEEDLRKKRRQRRRAPPGGGGSRIRAEMFAKGQPVAPYNTTQFLMDDHDQEEPDLVDMEPVDPYLEPWKHPGSQPRTACNNCYCKKCCFHCYACFTRKGLGISYG
[3]; luciferase assays performed as in Example 1
  inhibition of HIV transcription in luciferase assays (in words): potently inhibited

B3: HT2 (protein)
chain: KKKHRRRPSKKKRHWKPYYKLTWEEKKKVDMEPVDPYLEPWKHPGSQPRTACNNCYCKKCCFHCYACFTRKGLGISYG
[3]; 293T cells, ratio of pHT2 to pTat 2:1
  inhibition of Luc expression from the HIV promoter (in words): failed to inhibit

B4: HT3 (protein)
chain: FDEKQSLRASRIRAEMFAKGQPVAPYNTTQFLMDDHDQEEPDLVDMEPVDPYLEPWKHPGSQPRTACNNCYCKKCCFHCYACFTRKGLGISYG
[3]; 293T cells, pHT:pTat ratio 2:1
  decrease in Luc expression from the HIV promoter: ≤ 2 fold
[4]
  immunoprecipitation of TAR RNA (in words): failed to bind TAR
